Positions count from the first letter of the chain named. Names may count otherwise.

B1: Medaka EP-1 serine protease domain mutant K63A (protein)
chain: VVGGVNAEKGAWPWMVSLHWRGRHGCGASLIGRDWLLTAAHCVYGANTHLQYWSAVLGLHAQSSMNSQEVQIRQVDRIIINKNYNRRTKEADIAMMHLQQPVNFTEWVLPVCLASEDQHFPAGRRCFIAGWGRDAEGGSLPDILQEAEVPLVDQDECQRLLPEYTFTSSMLCAGYPEGGVDSCQGDSGGPLMCLEDARWTLIGVTSFGVGCGRPERPGAYARVSAFTSWIAETRRSSFSDLD
B2: Medaka EP-1 serine protease domain mutant T105R (protein)
chain: B1 chain with A46K, T88R
B3: Medaka EP-1 serine protease domain mutant T105A (protein)
chain: B1 chain with A46K, T88A
B4: Medaka EP-1 serine protease domain mutant F144S (protein)
chain: B1 chain with A46K, F127S
B5: Medaka EP-1 serine protease domain mutant K63E (protein)
chain: B1 chain with A46E
B6: Medaka EP-1 serine protease domain mutant F144A (protein)
chain: B1 chain with A46K, F127A
B7: Medaka EP-1 serine protease domain mutant E173K (protein)
chain: B1 chain with A46K, E156K
B8: Medaka EP-1 serine protease domain mutant P193A (protein)
chain: B1 chain with A46K, P176A

The target in the first data set is T1, Gly-Asp-Asp-Asp-Asp-Lys-β-naphthylamide.
T1 chain: GDDDDK
Consider B1, for which the “enzyme activity against wild-type” value is “The same held true for all the other mutants except for F144A”.

Regarding B2, the “enzyme activity against wild-type” value is given as “The same held true for all the other mutants except for F144A”.

As to B3, the “enzyme activity against wild-type” value was “The same held true for all the other mutants except for F144A”.

As for B4, the “enzyme activity against wild-type” value was “consistently resulted in reduced enzyme activity for synthetic peptide substrates”.

As to B5, the “enzyme activity against wild-type” value is “The same held true for all the other mutants except for F144A”.

As to B6, the “enzyme activity against wild-type” value is recorded as “hydrolyzed the GD4K-βNA as well as the three MCA-containing substrates at an elevated rate when compared with the wild-type enzyme”.

In the case of B7, the “enzyme activity against wild-type” value is reported as “consistently resulted in reduced enzyme activity for synthetic peptide substrates”.

B8: the “enzyme activity against wild-type” value is “The same held true for all the other mutants except for F144A”.

Another data set concerns the target recombinant fusion protein of Medaka trypsinogen.
For the protein B1, the “conversion of trypsinogen to active enzyme” value (from here on “conversion of trypsinogen”) is on record as “A total of 12 mutants could convert the recombinant Medaka trypsinogen to its active enzyme (data not shown)”.

Take B2: the “conversion of trypsinogen” value is reported as “A total of 12 mutants could convert the recombinant Medaka trypsinogen to its active enzyme (data not shown)”.

Consider B3, for which the “conversion of trypsinogen” value is given as “A total of 12 mutants could convert the recombinant Medaka trypsinogen to its active enzyme (data not shown)”.

B4: the “conversion of trypsinogen” value is reported as “A total of 12 mutants could convert the recombinant Medaka trypsinogen to its active enzyme (data not shown)”.

Take B5: the “conversion of trypsinogen” value is on record as “A total of 12 mutants could convert the recombinant Medaka trypsinogen to its active enzyme (data not shown)”.

With B6, the “conversion of trypsinogen” value is on record as “A total of 12 mutants could convert the recombinant Medaka trypsinogen to its active enzyme (data not shown)”.

Regarding B7, the “conversion of trypsinogen” value was “A total of 12 mutants could convert the recombinant Medaka trypsinogen to its active enzyme (data not shown)”.

In the case of B8, the “conversion of trypsinogen” value was “A total of 12 mutants could convert the recombinant Medaka trypsinogen to its active enzyme (data not shown)”.

The next data set concerns the target T2, Pro-Phe-Arg-MCA.
T2 chain: PFR
Turning to B1, the “enzyme activity against wild-type” value is recorded as “The same held true for all the other mutants except for F144A”.

As to B2, the “enzyme activity against wild-type” value was “The same held true for all the other mutants except for F144A”.

On to B3, for which the “enzyme activity against wild-type” value is reported as “The same held true for all the other mutants except for F144A”.

B4: the “enzyme activity against wild-type” value is on record as “consistently resulted in reduced enzyme activity for synthetic peptide substrates”.

In the case of B5, the “enzyme activity against wild-type” value is listed as “The same held true for all the other mutants except for F144A”.

For B6, the “enzyme activity against wild-type” value is given as “hydrolyzed the GD4K-βNA as well as the three MCA-containing substrates at an elevated rate when compared with the wild-type enzyme”.

As for B7, the “enzyme activity against wild-type” value is recorded as “consistently resulted in reduced enzyme activity for synthetic peptide substrates”.

Regarding B8, the “enzyme activity against wild-type” value is given as “The same held true for all the other mutants except for F144A”.

The target of a further data set is T3, Z-Phe-Arg-MCA.
T3 chain: FR
As to B1, the “enzyme activity against wild-type” value is listed as “The same held true for all the other mutants except for F144A”.

In the case of B2, the “enzyme activity against wild-type” value is “The same held true for all the other mutants except for F144A”.

As for B3, the “enzyme activity against wild-type” value is “The same held true for all the other mutants except for F144A”.

B4: the “enzyme activity against wild-type” value was “consistently resulted in reduced enzyme activity for synthetic peptide substrates”.

Turning to B5, the “enzyme activity against wild-type” value was “The same held true for all the other mutants except for F144A”.

As for B6, the “enzyme activity against wild-type” value is given as “hydrolyzed the GD4K-βNA as well as the three MCA-containing substrates at an elevated rate when compared with the wild-type enzyme”.

With B7, the “enzyme activity against wild-type” value is “consistently resulted in reduced enzyme activity for synthetic peptide substrates”.

As to B8, the “enzyme activity against wild-type” value is on record as “The same held true for all the other mutants except for F144A”.

Another data set concerns the target T4, Boc-Glu(OBzl)-Ala-Arg-MCA.
T4 chain: EAR
For B1, the “enzyme activity against wild-type” value is on record as “The same held true for all the other mutants except for F144A”.

On to B2, for which the “enzyme activity against wild-type” value is listed as “The same held true for all the other mutants except for F144A”.

Turning to B3, the “enzyme activity against wild-type” value is reported as “The same held true for all the other mutants except for F144A”.

As to B4, the “enzyme activity against wild-type” value was “consistently resulted in reduced enzyme activity for synthetic peptide substrates”.

On to B5, for which the “enzyme activity against wild-type” value was “The same held true for all the other mutants except for F144A”.

In the case of B6, the “enzyme activity against wild-type” value is reported as “hydrolyzed the GD4K-βNA as well as the three MCA-containing substrates at an elevated rate when compared with the wild-type enzyme”.

For B7, the “enzyme activity against wild-type” value was “consistently resulted in reduced enzyme activity for synthetic peptide substrates”.

With B8, the “enzyme activity against wild-type” value is recorded as “The same held true for all the other mutants except for F144A”.
